Measured values as given in article PMC12355267, “Human Helicase DDX5 is Hijacked by SARS-CoV‑2 Nsp13 Helicase to Enhance RNA Unwinding” (ACS Omega, 2025).

B1: full-length DDX5 (flDDX5) (enzyme, human, UniProt P17844 1-614, looked up)
chain: MSGYSSDRDRGRDRGFGAPRFGGSRAGPLSGKKFGNPGEKLVKKKWNLDELPKFEKNFYQEHPDLARRTAQEVETYRRSKEITVRGHNCPKPVLNFYEANFPANVMDVIARQNFTEPTAIQAQGWPVALSGLDMVGVAQTGSGKTLSYLLPAIVHINHQPFLERGDGPICLVLAPTRELAQQVQQVAAEYCRACRLKSTCIYGGAPKGPQIRDLERGVEICIATPGRLIDFLECGKTNLRRTTYLVLDEADRMLDMGFEPQIRKIVDQIRPDRQTLMWSATWPKEVRQLAEDFLKDYIHINIGALELSANHNILQIVDVCHDVEKDEKLIRLMEEIMSEKENKTIVFVETKRRCDELTRKMRRDGWPAMGIHGDKSQQERDWVLNEFKHGKAPILIATDVASRGLDVEDVKFVINYDYPNSSEDYIHRIGRTARSTKTGTAYTFFTPNNIKQVSDLISVLREANQAINPKLLQLVEDRGSGRSRGRGGMKDDRRDRYSAGKRGGFNTFRDRENYDRGYSSLLKRDFGAKTQNGVYSAANYTNGSFGSNFVSAGIQTSFRTGNPTGTYQNGYDSTQQYGSNVPNMHNGMNQQAYAYPATAAAPMIGYPMPTGYSQ
notes: human DEAD-box helicase DDX5, native full-length gene in pET30a, 614 residues (1-614); also called full-length DDX5 (1–614); unlabeled flDDX5
B2: RecA1 domain of DDX5 (1–303) (domain or fragment, human, UniProt P17844 1-303, looked up)
chain: MSGYSSDRDRGRDRGFGAPRFGGSRAGPLSGKKFGNPGEKLVKKKWNLDELPKFEKNFYQEHPDLARRTAQEVETYRRSKEITVRGHNCPKPVLNFYEANFPANVMDVIARQNFTEPTAIQAQGWPVALSGLDMVGVAQTGSGKTLSYLLPAIVHINHQPFLERGDGPICLVLAPTRELAQQVQQVAAEYCRACRLKSTCIYGGAPKGPQIRDLERGVEICIATPGRLIDFLECGKTNLRRTTYLVLDEADRMLDMGFEPQIRKIVDQIRPDRQTLMWSATWPKEVRQLAEDFLKDYIHINIG
notes: human DDX5, RecA1 domain with the N-terminal region, residues 1-303; probably as DDX5ΔC (pETM-13, His-tag), surmised; source: E. coli (cloned from the gene optimized for E. coli expression), purified
B3: labeled RecA1 domain of DDX5 (domain or fragment, human, UniProt P17844 1-303, looked up)
chain: B2 chain
modifications: fluorescent label (dye and site not stated)
notes: human DDX5, RecA1 domain with the N-terminal region, residues 1-303; also called fluorescent RecA1; source: E. coli (cloned from the gene optimized for E. coli expression), purified, then labeled

Columns and labels:
[1] = target: T1, SARS-CoV-2 Nsp13 helicase (SARS-CoV-2, UniProt P0DTD1 5325-5925); test: MST; conditions: both partners purified
T1 construct: also called Nsp13 helicase of SARS-CoV-2

[2] = target: T1, SARS-CoV-2 Nsp13 helicase; conditions: both partners purified

Binder	IC50 [1]	Kd [2]
B1	0.325 µM	
B2	16.2 µM	
B3		9.1 ± 1.3 µM
